T1: recombinant human TIGIT (Human TIGIT His, Sino Biological, 10917-H08H) (human, UniProt Q495A1 22-138)
T1 construct: range 1-138; bought; also called hTIGIT
T1 sequence (looked up): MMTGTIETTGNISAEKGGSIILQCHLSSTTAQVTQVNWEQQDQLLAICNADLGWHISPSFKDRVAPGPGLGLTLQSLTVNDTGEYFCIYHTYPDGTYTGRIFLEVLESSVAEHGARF

T2: full-length human TIGIT expressed on CHO-K cell membrane (CHO-K-TIGIT) (human, UniProt Q495A1 22-244)
T2 construct: whole, on cells; also called CHO-TIGIT; membrane TIGIT
T2 sequence (looked up): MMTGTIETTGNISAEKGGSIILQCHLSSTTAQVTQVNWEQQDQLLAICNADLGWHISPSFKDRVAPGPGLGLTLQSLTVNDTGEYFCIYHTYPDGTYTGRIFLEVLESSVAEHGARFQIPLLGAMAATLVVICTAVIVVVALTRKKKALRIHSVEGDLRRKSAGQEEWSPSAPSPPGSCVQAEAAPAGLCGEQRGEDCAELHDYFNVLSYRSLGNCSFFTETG

B1: humanized anti-human TIGIT monoclonal antibody P03479 (antibody, V domains shown)
VH: EVQVVESGGGLVKPGGSLRLSCAASGFTFSTYAMSWVRQAPGKGLEWVAEISSGGSHTFYADTVKGRFTISRDNAKNTLYLQMNSLRAEDTAVYYCARKTLDYYALDYWGQGTTVTVSS
VL: DVQITQSPSYLSASVGDRVTINCRASKSISKYLAWYQQKPGKAPKLLIYSGSRLQSGIPSRFSGSGYGTDFTLTISSLQPEDFATYYCQQHNEYPWTFGGGTKLEIK
B2: anti-human TIGIT human mouse chimeric monoclonal antibody 7103-06 (hFc) (antibody, V domains shown)
VH: EEQLVESGGGLVKPGGTLKLSCAASGFTFSTYAMSWVRQSPEKRLEWVAEISSGGSYTYYSDTVTGRFTISRDNAKNTLYLEMSSLRSEDTAMYYCARKTLDYYALDYWGHGTSVTVSS
VL: DVQITQSPSYLAASPGETITINCRANKTISKYLAWYQEKPGKTNKLLIYSGSRLQSGIPSKFSGSGYGTDFTLTISSLEPEDFAMYYCQQHNEYPWTFGGGTKLEIK
B3: humanized anti-human TIGIT monoclonal antibody P03490 (antibody, V domains shown)
VH: QVQLVQSGAEVKKPGASVKLSCKASGYTFISYNIYWVRQAPGQGLEWIGGVNPSNGNTNFNENFKSRATLTVDKSSSTAYMELSRLRSDDTAVYFCTRGNYYGYEFAYWGQGTTVTVSS
VL: DIQMTQSPSSLSASVGDRVTITCKASQHVSTAVAWYQQKPGKAPKLLIYSPSYRYTGVPSRFSGSGSGTDFTFTISSLQPEDIATYYCQQHYSTPWTFGGGTKLEIK
B4: humanized anti-human TIGIT monoclonal antibody P03491 (antibody, V domains shown)
VH: B3 VH with L20V, A68V, S76I, F95Y
VL: B3 VL
B5: humanized anti-human TIGIT monoclonal antibody P03492 (antibody, V domains shown)
VH: B3 VH with L20V, S66G, A68V, K74T, S76I, F95Y
VL: B3 VL
B6: humanized anti-human TIGIT monoclonal antibody P03493 (antibody, V domains shown)
VH: B3 VH with L20V, I48M, K65Q, S66G, A68V, L70M, K74T, S76I, F95Y
VL: B3 VL
B7: anti-human TIGIT human mouse chimeric monoclonal antibody 7103-03 (hFc) (antibody, V domains shown)
VH: EVQLQQSGPELVKPGASVKISCKTSGYTFTEYTMHWVKQSHGKSLEWIGGINPNNGGTSYNQKFKGKATLTVDKSSSTAYMELRSLTSEDSAVYYCARGAYYRYDFDYWGQGTTLTVSS
VL: DIVMTQSHKFMSTSVGDRVSITCKASQDVRTAVVWYQQKPGQSPKLLIYSASYRYTGVPDRFTGSGSGTDFTFTISSVQAEDLAVYYCQQHYSTPWTFGGGTKLEIK
B8: anti-human TIGIT human mouse chimeric monoclonal antibody 7103-04 (hFc) (antibody, V domains shown)
VH: VQLQESGAELVKPGASVKLSCRASGYTFTDYFVYWVKQRPGQGLEWIGGINPSNGGATFNEKFKNKATLTVDTSSSTAYMQLSSLTSEDSAIYYCTRGNFYGYEFAYWGQGTLVTVSA
VL: B7 VL with M11I, D28H, R30S, A51P, S93I
B9: humanized anti-human TIGIT monoclonal antibody P04662 (antibody, V domains shown)
VH: B1 VH with G42E, K43Q, G44R, A61S, K65T
VL: B1 VL with Y10S, L11V, I58V, Y67S
B10: humanized anti-human TIGIT monoclonal antibody P04667 (antibody, V domains shown)
VH: B1 VH with G42E, K43Q, G44R
VL: B1 VL with V2I, I4M, Y10S, L11V, D17E, R18T, V19I, N22T, I58V, Y67S
B11: humanized anti-human TIGIT monoclonal antibody P04666 (antibody, V domains shown)
VH: B1 VH with G42E, K43Q, G44R
VL: B1 VL with Y10S, L11V, D17E, R18T, V19I, I58V, Y67S
B12: humanized anti-human TIGIT monoclonal antibody P04663 (antibody, V domains shown)
VH: B1 VH with G42E, K43Q, G44R
VL: B1 VL with Y10S, L11V, I58V, Y67S
B13: humanized anti-human TIGIT monoclonal antibody P04665 (antibody, V domains shown)
VH: B1 VH with G42E, K43Q, G44R, A61S, K65T
VL: B1 VL with V2I, I4M, Y10S, L11V, D17E, R18T, V19I, N22T, I58V, Y67S

Where a chain is given by its changes, count along the chain named. Where “and” joins values, the source holds several entries; their conditions need not be identical. Identical values can stand only once.

The first test deals with T1, recombinant human TIGIT (Human TIGIT …). Briefly: ELISA, coated human TIGIT-His.
Regarding B1, the EC50 (usually the concentration giving half of the maximal effect) is 0.0858 nM.
For the molecule B2, the EC50 is 0.554 nM.
As for B3, the EC50 was found to be 0.501 nM.
As for B4, the EC50 stood at 0.471 nM.
On the same count and under the same terms, for B5 the value was 0.463 nM.
For the molecule B6, the half-maximal effective concentration (EC50) came to 0.444 nM.
Consider B7, for which the concentration giving a half-maximal response (EC50) stood at 0.38 nM.
As for B8, the EC50 was 0.554 nM.

The next test concerns the target T2, full-length human TIGIT expressed on …. Briefly: flow cytometry, CHO-TIGIT cells. Background: In flow cytometry, cells or beads pass a laser one at a time.
Consider B1, for which a half-maximal effect (EC50) was put at 0.963 nM.
Regarding B2, it took 0.873 nM to reach a half-maximal effect (EC50).
Molecule B5 came in with an EC50 of 0.437 nM.
In turn, B6 yielded a concentration giving a half-maximal response (EC50) of 0.557 nM.
Consider B7, for which the EC50 is 0.596 nM.
With B8, the EC50 is 0.867 nM.

A further test addresses T1, recombinant human TIGIT (Human TIGIT …). Kind of test: competition ELISA, coated TIGIT-His, CD155-mFC as competitor. On the procedure:
Antigen TIGIT (Human TIGIT (His), Sino Biological, 10917-H08H) was diluted with pH 9.6 of NaHCO₃ solution into 1 μg/mL, 50 μL per well was added to a 96-well ELISA plate, and placed overnight at 4° C. in a refrigerator. The next day, after washing with PBS twice, plate was blocked with 3% BSA (100 μL per well) by incubating at 37° C. for 1.5 h, and washed 4 times with PBST.
With B2, the IC50 (usually the midpoint of a concentration-inhibition curve) amounted to 2.03 nM.
With B7, the concentration for half-maximal inhibition (IC50) was 1.46 nM.
Regarding B8, the IC50 turned out to be 3.3 nM.

The next test shares this target. Briefly: competition ELISA on recombinant human TIGIT, CD155 as competitor. For orientation: In an ELISA, binding on a coated surface is turned into a signal by an enzyme label.
For the molecule B1, the half-inhibitory concentration (IC50) came out at 0.714 nM.
For B9, the IC50 came out at 0.63 nM.
Turning to B10, the 50% inhibitory concentration (IC50) is 0.631 nM.
Regarding B11, the half-maximal inhibitory concentration (IC50) is 0.127 nM.
The same measure, in the same setting: for B12 the value was 0.594 nM.

The target is the same in another test. Kind of test: BLI, antibody captured on anti-human Fc probe, TIGIT-His in solution. On the procedure: The dissociation constant (Kd) of the human mouse chimeric TIGIT monoclonal antibody was detected by using a GATORS (ProbeLife) detection instrument and an HFC (LOT #2007065 Tray 2), Human antibody Capture probe. The human mouse chimeric TIGIT monoclonal antibody was diluted to 30 nM in a binding buffer (Q buffer [PBS (10 mM PH7.4)+0.02% Tween 20+0.2% BSA]). The recombinant human TIGIT protein was diluted in Q buffer in a 2-fold gradient to different concentrations varying in the range of 40 nM to 10 nM. A kinetic correlation determination was initiated by placing an antibody capture sensor in the continuously diluted antigen solution described above. Octet Data Acquisition software was opened and New Kinetics Experiment-Basic Kinetics mode was selected.
In the case of B2, the Kd (commonly a measure of binding affinity in units of concentration) is 1.29 nM, the koff (commonly the first-order rate constant of dissociation) came to 0.00139 s⁻¹ and the kon (usually the rate constant with which the complex forms) amounted to 1.07e+06 M⁻¹ s⁻¹.
Take B7: the Kd was 1.14 nM, the koff was determined as 0.00091 s⁻¹ and the kon was 801000 M⁻¹ s⁻¹.
As for B8, the Kd came to 0.661 nM, the koff amounted to 0.000558 s⁻¹ and the kon is 845000 M⁻¹ s⁻¹.

A further test shares this target. The test is described as above. This is another data set of the same source.
For B3, the dissociation constant (Kd) was determined as 1.27 nM, the koff was determined as 0.000664 s⁻¹ and the kon was determined as 522000 M⁻¹ s⁻¹.
The corresponding values for B4 are 1.88 nM, 0.00095 s⁻¹ and 506000 M⁻¹ s⁻¹.
On to B5, for which the dissociation constant (Kd) was determined as 1.49 nM, the koff is 0.000781 s⁻¹ and the association rate constant (kon) turned out to be 525000 M⁻¹ s⁻¹.
Consider B6, for which the Kd was determined as 1.12 nM, the koff was found to be 0.000513 s⁻¹ and the on-rate (kon) is 458000 M⁻¹ s⁻¹.

The next test shares this target. The description is as above. The source holds these as a separate data set.
As for B1, the dissociation constant Kd turned out to be 8.43 nM, the off-rate (koff) is 0.00495 s⁻¹ and the on-rate constant (kon) is 587000 M⁻¹ s⁻¹.
Regarding B9, the Kd turned out to be 2.4 nM, the koff is 0.0031 s⁻¹ and the kon came out at 1.29e+06 M⁻¹ s⁻¹.
Regarding B10, the dissociation constant (Kd) came to 4.2 nM, the koff was 0.00565 s⁻¹ and the on-rate constant (kon) came to 1.35e+06 M⁻¹ s⁻¹.
Consider B11, for which the dissociation constant (Kd) was 2.19 nM, the off-rate constant (koff) is 0.00347 s⁻¹ and the kon was 1.59e+06 M⁻¹ s⁻¹.
The corresponding values for B12 are 2 nM, 0.00307 s⁻¹ and 1.53e+06 M⁻¹ s⁻¹.
For the molecule B13, the Kd was 5.58 nM, the koff came to 0.00583 s⁻¹ and the kon is 1.04e+06 M⁻¹ s⁻¹.

A further test has the same target. Kind of test: ELISA, recombinant human TIGIT (His) coated, anti-human-Fc-AP, OD405/490. On the procedure: (§1) Antigen hTIGIT (Human TIGIT (His), Sino Biological, 10917-H08H) was diluted into 1 μg/mL with a NaHCO₃ solution of pH 9.6, 50 μl per well was added to a 96-well ELISA plate, and placed overnight in refrigerator at 4° C.
(§2) In order to determine whether the humanized TIGIT monoclonal antibody of the present disclosure could bind to the recombinant human TIGIT protein, in vitro testing was performed. Murine antibodies and Tiragolumab (Tira) were used as positive controls. The experimental method was the same as in Example 3.1.
With B3, the EC50 turned out to be 0.0749 µg/mL.
Same read-out and setting: for B4 the value was 0.0702 µg/mL.
In the case of B5, the EC50 is 0.0692 µg/mL.
Consider B6, for which the EC50 turned out to be 0.0662 µg/mL.

The target is the same in the next test. Described as above. The source holds these as a separate data set. As for the experimental part: as §1, §2
Consider B9, for which the 50% effective concentration (EC50) is 0.0063 µg/mL and 0.0419 nM.
Turning to B10, the concentration giving a half-maximal response (EC50) is 0.0125 µg/mL and 0.0836 nM.
Same read-out and setting: for B11 the value was 0.0137 µg/mL and 0.0915 nM; for B12, 0.0049 µg/mL and 0.033 nM.
For the molecule B13, the EC50 is 0.0136 µg/mL and 0.0913 nM.

For a further test the target is unchanged. Briefly: competition ELISA, human TIGIT (His) coated, antibody titrated against fixed CD155, bound CD155 detected, OD450/655.
As to B1, the IC50 was 0.109 µg/mL and 0.728 nM.
Consider B9, for which the IC50 came to 0.094 µg/mL.
Take B10: the IC50 was 0.094 µg/mL.
As for B11, the IC50 worked out at 0.019 µg/mL.
Same read-out and setting: for B12 the value was 0.089 µg/mL.

The record behind these values is patent publication US20240417462A1 (SHANGHAI CELGEN BIO PHARMACEUTICAL, published 2024).
